According to US20220411483A1 (Chugai, published 2022):
Numbering of substitutions follows the chain as printed.

T1: FcγRIIb extracellular domain, His tag (human, UniProt P31994 43-217)
T1 construct: extracellular domain; also called FcgRIIb
T1 sequence (looked up): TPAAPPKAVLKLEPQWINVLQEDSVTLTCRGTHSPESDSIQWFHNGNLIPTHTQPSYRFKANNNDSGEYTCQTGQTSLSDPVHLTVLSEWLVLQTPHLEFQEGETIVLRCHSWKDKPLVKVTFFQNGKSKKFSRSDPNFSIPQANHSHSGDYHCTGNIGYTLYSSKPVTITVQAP

T2: FcγRIIa H type extracellular domain, His tag (human, UniProt P12318 34-217)
T2 construct: extracellular domain; also called FcgRIIaH
T2 sequence (looked up): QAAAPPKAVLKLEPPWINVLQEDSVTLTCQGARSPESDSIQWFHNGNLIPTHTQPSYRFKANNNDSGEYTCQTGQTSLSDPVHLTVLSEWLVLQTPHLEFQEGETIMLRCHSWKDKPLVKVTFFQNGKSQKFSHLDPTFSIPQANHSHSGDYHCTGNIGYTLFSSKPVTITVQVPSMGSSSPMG

T3: FcγRIIa R type extracellular domain, His tag (human, UniProt P12318 34-217)
T3 construct: extracellular domain; also called FcgRIIaR
T3 sequence (looked up): T2 sequence (looked up) with H134R

B1: IL6R-P653/IL6R-L (antibody, human IgG1, kappa)
heavy: QVQLQESGPGLVKPSETLSLTCAVSGHSISHDHAWSWVRQPPGEGLEWIGFISYSGITNYNPSLQGRVTISRDNSKNTLYLQMNSLRAEDTAVYYCARSLARTTAMDYWGEGTLVTVSSASTKGPSVFPLAPSSKSTSGGTAALGCLVKDYFPEPVTVSWNSGALTSGVHTFPAVLQSSGLYSLSSVVTVPSSSLGTQTYICNVNHKPSNTKVDKKVEPKSCDKTHTCPPCPAPELLGGDSVMLFPPKPKDTLMISRTPEVTCVVVDVSPEDPEVKFNWYVDGVEVHNAKTKPREEQENSTYRVVSVLTVLHQDWLNGKEYKCKVSNKALPAPIEKTISKAKGQPREPQVYTLPPSRDELTKNQVSLTCLVKGFYPSDIAVEWESNGQPENNYKTTPPVLDSDGSFFLYSKLTVDKSRWQQGNVFSCSVMHEALHNHYTQKSLSLSP
light: not shown
B2: IL6R-P660/IL6R-L (antibody, human IgG1, kappa)
heavy: B1 heavy with M243F, P270H, E298Y, S300A, S326N
light: not shown
B3: IL6R-P654/IL6R-L (antibody, human IgG1, kappa)
heavy: B1 heavy with P270H, S326N
light: not shown
B4: IL6R-P656/IL6R-L (antibody, human IgG1, kappa)
heavy: B1 heavy with P270H, A332H
light: not shown
B5: IL6R-P693/IL6R-L (antibody, human IgG1, kappa)
heavy: B1 heavy with M243F, P270H, S300A
light: not shown
B6: IL6R-P657/IL6R-L (antibody, human IgG1, kappa)
heavy: B1 heavy with P270H, A332Y
light: not shown
B7: IL6R-P690/IL6R-L (antibody, human IgG1, kappa)
heavy: B1 heavy with G239Q, P270H, A332H
light: not shown
B8: IL6R-P658/IL6R-L (antibody, human IgG1, kappa)
heavy: B1 heavy with L237F, P270H
light: not shown
B9: IL6R-P687/IL6R-L (antibody, human IgG1, kappa)
heavy: B1 heavy with M243F, P270H, E298Y, S300A, S326N, A332H
light: not shown
B10: IL6R-P661/IL6R-L (antibody, human IgG1, kappa)
heavy: B1 heavy with M243F, P270H, E298Y, S300A, A332H
light: not shown
B11: IL6R-P726/IL6R-L (antibody, human IgG1, kappa)
heavy: B1 heavy with G239Q, P270H, S326H, A332H
light: not shown
B12: IL6R-P659/IL6R-L (antibody, human IgG1, kappa)
heavy: B1 heavy with G239Q, P270H
light: not shown
B13: IL6R-P689/IL6R-L (antibody, human IgG1, kappa)
heavy: B1 heavy with S326H
light: not shown
B14: IL6R-P691/IL6R-L (antibody, human IgG1, kappa)
heavy: B1 heavy with L237F, G239Q, P270H
light: not shown
B15: IL6R-P655/IL6R-L (antibody, human IgG1, kappa)
heavy: B1 heavy with P270H, S326H
light: not shown
B16: IL6R-P692/IL6R-L (antibody, human IgG1, kappa)
heavy: B1 heavy with L237F, G239Q, P270H, A332H
light: not shown

Target: T4, FcγRIa extracellular domain, His tag (human, UniProt P12314 16-292)
T4 construct: whole entry named; also called FcgRIa
T4 sequence (P12314 16-292): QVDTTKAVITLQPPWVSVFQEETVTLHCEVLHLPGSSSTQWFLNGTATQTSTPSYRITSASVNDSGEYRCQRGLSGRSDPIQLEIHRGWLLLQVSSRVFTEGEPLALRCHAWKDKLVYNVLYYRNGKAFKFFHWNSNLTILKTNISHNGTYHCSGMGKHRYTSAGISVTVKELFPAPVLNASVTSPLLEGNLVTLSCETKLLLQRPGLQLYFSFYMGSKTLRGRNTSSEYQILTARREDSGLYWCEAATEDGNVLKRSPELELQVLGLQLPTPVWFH
Experiment: SPR, KD ratio

Binder | Relative FcgRIa-binding Activity
B1 | 0.0183 fold of IL6R-G1d/IL6R-L
B2 | 0.0446 fold of IL6R-G1d/IL6R-L
B3 | 0.0206 fold of IL6R-G1d/IL6R-L
B4 | 0.0118 fold of IL6R-G1d/IL6R-L
B5 | 0.0423 fold of IL6R-G1d/IL6R-L
B6 | 0.0194 fold of IL6R-G1d/IL6R-L
B7 | 0.0011 fold of IL6R-G1d/IL6R-L
B8 | 0.0004 fold of IL6R-G1d/IL6R-L
B9 | 0.0471 fold of IL6R-G1d/IL6R-L
B10 | 0.033 fold of IL6R-G1d/IL6R-L
B11 | 0.0017 fold of IL6R-G1d/IL6R-L
B12 | 0.0041 fold of IL6R-G1d/IL6R-L
B13 | 0.0118 fold of IL6R-G1d/IL6R-L
B14 | 0.0004 fold of IL6R-G1d/IL6R-L
B15 | 0.0183 fold of IL6R-G1d/IL6R-L
B16 | 0.0006 fold of IL6R-G1d/IL6R-L

Target: T1, FcγRIIb extracellular domain, His tag
Experiment: SPR, KD ratio

Binder | Relative FcgRIIb-binding Activity
B1 | 1.46 fold of IL6R-G1d/IL6R-L
B2 | 0.972 fold of IL6R-G1d/IL6R-L
B3 | 2.02 fold of IL6R-G1d/IL6R-L
B4 | 2.68 fold of IL6R-G1d/IL6R-L
B5 | 0.918 fold of IL6R-G1d/IL6R-L
B6 | 1.64 fold of IL6R-G1d/IL6R-L
B7 | 1.28 fold of IL6R-G1d/IL6R-L
B8 | 3.81 fold of IL6R-G1d/IL6R-L
B9 | 1.01 fold of IL6R-G1d/IL6R-L
B10 | 1.28 fold of IL6R-G1d/IL6R-L
B11 | 1.25 fold of IL6R-G1d/IL6R-L
B12 | 0.807 fold of IL6R-G1d/IL6R-L
B13 | 1.09 fold of IL6R-G1d/IL6R-L
B14 | 1.19 fold of IL6R-G1d/IL6R-L
B15 | 1.89 fold of IL6R-G1d/IL6R-L
B16 | 1.89 fold of IL6R-G1d/IL6R-L

Target: T2, FcγRIIa H type extracellular domain, …
Experiment: SPR, KD ratio

Binder | Relative FcgRIIaH-binding Activity
B1 | 0.009 fold of IL6R-G1d/IL6R-L
B2 | 0.009 fold of IL6R-G1d/IL6R-L
B3 | 0.014 fold of IL6R-G1d/IL6R-L
B4 | 0.011 fold of IL6R-G1d/IL6R-L
B5 | 0.006 fold of IL6R-G1d/IL6R-L
B6 | 0.009 fold of IL6R-G1d/IL6R-L
B7 | 0.007 fold of IL6R-G1d/IL6R-L
B8 | 0.01 fold of IL6R-G1d/IL6R-L
B9 | 0.007 fold of IL6R-G1d/IL6R-L
B10 | 0.01 fold of IL6R-G1d/IL6R-L
B11 | 0.016 fold of IL6R-G1d/IL6R-L
B12 | 0.006 fold of IL6R-G1d/IL6R-L
B13 | 0.008 fold of IL6R-G1d/IL6R-L
B14 | 0.007 fold of IL6R-G1d/IL6R-L
B15 | 0.017 fold of IL6R-G1d/IL6R-L
B16 | 0.008 fold of IL6R-G1d/IL6R-L

Target: T3, FcγRIIa R type extracellular domain, …
Experiment: SPR, KD ratio

Binder | Relative FcgRIIaR-binding Activity
B1 | 0.024 fold of IL6R-G1d/IL6R-L
B2 | 0.025 fold of IL6R-G1d/IL6R-L
B3 | 0.032 fold of IL6R-G1d/IL6R-L
B4 | 0.032 fold of IL6R-G1d/IL6R-L
B5 | 0.018 fold of IL6R-G1d/IL6R-L
B6 | 0.026 fold of IL6R-G1d/IL6R-L
B7 | 0.017 fold of IL6R-G1d/IL6R-L
B8 | 0.038 fold of IL6R-G1d/IL6R-L
B9 | 0.02 fold of IL6R-G1d/IL6R-L
B10 | 0.03 fold of IL6R-G1d/IL6R-L
B11 | 0.019 fold of IL6R-G1d/IL6R-L
B12 | 0.015 fold of IL6R-G1d/IL6R-L
B13 | 0.016 fold of IL6R-G1d/IL6R-L
B14 | 0.017 fold of IL6R-G1d/IL6R-L
B15 | 0.03 fold of IL6R-G1d/IL6R-L
B16 | 0.022 fold of IL6R-G1d/IL6R-L

Target: T5, FcγRIIIa V type extracellular domain, His tag (human, UniProt P08637 17-208)
T5 construct: extracellular domain; also called FcgRIIIaV
T5 sequence (P08637 17-208 F176V): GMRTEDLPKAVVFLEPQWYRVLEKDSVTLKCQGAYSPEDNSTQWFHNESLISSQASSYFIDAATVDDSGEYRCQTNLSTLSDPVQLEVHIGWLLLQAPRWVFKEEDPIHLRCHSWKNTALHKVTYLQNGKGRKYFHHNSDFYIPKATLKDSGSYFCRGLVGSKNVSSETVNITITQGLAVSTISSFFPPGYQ
Experiment: SPR, KD ratio

Binder | Relative FcgRIIIaV-binding Activity
B1 | 0.007 fold of IL6R-G1d/IL6R-L
B2 | 0.011 fold of IL6R-G1d/IL6R-L
B3 | 0.007 fold of IL6R-G1d/IL6R-L
B4 | 0.007 fold of IL6R-G1d/IL6R-L
B5 | 0.008 fold of IL6R-G1d/IL6R-L
B6 | 0.005 fold of IL6R-G1d/IL6R-L
B7 | 0.005 fold of IL6R-G1d/IL6R-L
B8 | 0.005 fold of IL6R-G1d/IL6R-L
B9 | 0.008 fold of IL6R-G1d/IL6R-L
B10 | 0.012 fold of IL6R-G1d/IL6R-L
B11 | 0.009 fold of IL6R-G1d/IL6R-L
B12 | 0.005 fold of IL6R-G1d/IL6R-L
B13 | 0.007 fold of IL6R-G1d/IL6R-L
B14 | 0.007 fold of IL6R-G1d/IL6R-L
B15 | 0.007 fold of IL6R-G1d/IL6R-L
B16 | 0.006 fold of IL6R-G1d/IL6R-L

Target: T1, FcγRIIb extracellular domain, His tag
Experiment: SPR, bound amount per captured antibody

Binder | Relative FcgRIIb-binding Activity
B1 | 116 % of IL6R-G1d/IL6R-L
B2 | 100 % of IL6R-G1d/IL6R-L
B3 | 128 % of IL6R-G1d/IL6R-L
B4 | 138 % of IL6R-G1d/IL6R-L
B5 | 87.9 % of IL6R-G1d/IL6R-L
B6 | 115 % of IL6R-G1d/IL6R-L
B7 | 102 % of IL6R-G1d/IL6R-L
B8 | 149 % of IL6R-G1d/IL6R-L
B9 | 100 % of IL6R-G1d/IL6R-L
B10 | 109 % of IL6R-G1d/IL6R-L
B11 | 123 % of IL6R-G1d/IL6R-L
B12 | 87 % of IL6R-G1d/IL6R-L
B13 | 103 % of IL6R-G1d/IL6R-L
B14 | 104 % of IL6R-G1d/IL6R-L
B15 | 127 % of IL6R-G1d/IL6R-L
B16 | 127 % of IL6R-G1d/IL6R-L

Target: T3, FcγRIIa R type extracellular domain, …
Experiment: SPR, bound amount per captured antibody

Binder | Relative FcgRIIaR-binding Activity
B1 | 14.5 % of IL6R-G1d/IL6R-L
B2 | 14.7 % of IL6R-G1d/IL6R-L
B3 | 18.2 % of IL6R-G1d/IL6R-L
B4 | 18.2 % of IL6R-G1d/IL6R-L
B5 | 11.4 % of IL6R-G1d/IL6R-L
B6 | 15.4 % of IL6R-G1d/IL6R-L
B7 | 10.5 % of IL6R-G1d/IL6R-L
B8 | 20.8 % of IL6R-G1d/IL6R-L
B9 | 12.6 % of IL6R-G1d/IL6R-L
B10 | 17.5 % of IL6R-G1d/IL6R-L
B11 | 12 % of IL6R-G1d/IL6R-L
B12 | 9.1 % of IL6R-G1d/IL6R-L
B13 | 10.1 % of IL6R-G1d/IL6R-L
B14 | 10.7 % of IL6R-G1d/IL6R-L
B15 | 17.1 % of IL6R-G1d/IL6R-L
B16 | 13.7 % of IL6R-G1d/IL6R-L
